How the values were obtained:
[1] = system: hDPCs; assay: Reactive oxygen species level with DCFDA, confocal microscope; format: cell-based, human; details: 1 mM H2O2, 100 ng/mL rCPNE7, imaged for approximately one hour
Description: Cultured hDPCs were seeded into 35 mm culture dishes for a confocal microscope at a density of 1×10^5 cells, cultured for 24 hours, and then treated with 1 mM H2O2 and treated with 100 ng/mL of rCPNE7. Then, images were taken for approximately one hour using a confocal microscope.
Cultured hDPCs were seeded into 35 mm culture dishes for a confocal microscope at a density of 1×10^5 cells, cultured for 24 hours, and then treated with 1 mM H2O2 and treated with 10 μg/mL of Selcopintide. Thereafter, images were taken for approximately one hour using a confocal microscope.

[2] = system: endogenous antioxidant enzymes in hDPC cells; assay: mRNA levels of endogenous antioxidant enzymes by RT-PCR; format: cell-based, human; details: hDPCs, 1 mM H2O2, CPNE7 recombinant protein 100 ng/mL or Selcopintide 10 ug/mL
Description: Cultured hDPCs were seeded into 60 mm culture dishes at a density of 4×10^5 cells, cultured for 24 hours, and then treated with 1 mM H2O2 and treated with the CPNE7 recombinant protein (100 ng/mL) and Selcopintide (10 ug/mL). After 30 minutes and one hour, the mRNA levels of Sod1, 2, and 3, catalase, Gpx7, Hmox1, and Txmd1 were checked.

[3] = system: hDPCs; assay: Beta-galactosidase (B-gal) staining, cell aging; format: cell-based, human; details: 1 mM H2O2, 100 ng/mL rCPNE7, 12 or 24 hours, compared to H2O2-only-treated group
Description: For this purpose, cultured hDPCs were seeded into 6-well plates at a density of 1×10^5 cells, cultured for 24 hours, and then treated with 1 mM H2O2 and treated with 100 ng/mL of rCPNE7. After 12 or 24 hours, the cells were fixed with 4% paraformaldehyde.
Next, B-gal staining was performed on the fixed cells for 24 hours to compare the degree of cell aging.

[4] = system: hDPCs; assay: Immunofluorescence staining with γ-H2A.X (DNA damage marker); format: cell-based, human; details: 1 mM H2O2, 100 ng/mL CPNE7 recombinant protein, 24 hours, vs 1 mM H2O2 group
Description: Cultured hDPCs were seeded into 35 mm culture dishes for a confocal microscope at a density of 1×10^5 cells, cultured for 24 hours, and then treated with 1 mM H2O2 and treated with 100 ng/mL of rCPNE7. After 24 hours, the cells were fixed with 4% paraformaldehyde.
Immunofluorescence staining using a γ-H2A.X antibody was performed on the fixed cells to compare intensity.
Cultured hDPCs were seeded into 35 mm culture dishes for a confocal microscope at a density of 1×10^5 cells, cultured for 24 hours, and then treated with 1 mM H2O2 and treated with 10 μg/mL of Selcopintide. After 24 hours, the cells were fixed with 4% paraformaldehyde.

[5] = system: Human dental pulp cells (hDPCs); assay: Optical microscope observation of hDPCs after H2O2 and test substance; format: cell-based; details: H2O2 5 uM, 100 uM, 1 mM or 2 mM, 100 ng/ml recombinant CPNE7 protein, 24 hours, compared to control without rCPNE7
Description: Human dental pulp cells (hDPCs) were cultured in an α-MEM medium containing 10% FBS under 37° C. and 5% CO2 conditions.
hDPCs were seeded into 35 mm culture dishes at a density of 1×10^5 cells, cultured for 24 hours, treated with H2O2 at a concentration of 5 uM, 100 uM, 1 mM, or 2 mM, respectively, and then treated with 100 ng/ml of a recombinant CPNE7 protein and cultured for 24 hours. After the culture was completed, the cultured cells were washed with PBS, and observed using an optical microscope. At this time, the hDPCs cultured without treating the recombinant CPNE7 protein (rCPNE7) were used as the control.
Cultured hDPC cells were seeded into 6-well plates at a density of 1×10^5 cells per well, cultured for 24 hours, and then treated with 1 mM hydrogen peroxide (H2O2) and treated with Selcopintide at concentrations of 1 μg/mL, 10 μg/mL, 100 μg/mL, and 500 μg/mL for 24 hours. Untreated hDPCs were used as the control.

B1: CPNE7 recombinant protein: recombinant Copine-7 (CPNE7) protein (protein, UniProt Q9UBL6 1-633, looked up)
Copine-7: MSAGSERGAAATPGGLPAPCASKVELRLSCRHLLDRDPLTKSDPSVALLQQAQGQWVQVGRTEVVRSSLHPVFSKVFTVDYYFEEVQRLRFEVYDTHGPSGFSCQEDDFLGGMECTLGQPAQKWLLQVVMRVSVDVLGPAGHCAKHFLCCTESSHLARTGPSFLLRYDDLCLPWATAGAVRWWTCRGGHTQGWQIVAQKKVTRPLLLKFGRNAGKSTITVIAEDISGNNGYVELSFRARKLDDKDLFSKSDPFLELYRVNDDQGLQLVYRTEVVKNNLNPVWEAFKVSLSSLCSCEETRPLKCLVWDYDSRGKHDFIGEFSTTFEEMQKAFEEGQAQWDCVNPKYKQKRRSYKNSGVVVLADLKFHRVYSFLDYIMGGCQIHFTVAIDFTASNGDPRNSCSLHYINPYQPNEYLKALVSVGEICQDYDSDKRFSALGFGARIPPKYEVSHDFAINFNPEDDECEGIQGVVEAYQNCLPRVQLYGPTNVAPIISKVARVAAAEESTGKASQYYILLILTDGVVTDMADTREAIVRASRLPMSIIIVGVGNADFTDMQVLDGDDGVLRSPRGEPALRDIVQFVPFRELKNASPAALAKCVLAEVPKQVVEYYSHRGLPPRSLGVPAGEASPGCTP
amount of reactive oxygen species (DCFDA) [1]: decreased and became significant at approximately one hour
mRNA of endogenous antioxidant enzymes Sod1, 2, and catalase ([2]; after 30 minutes, compared to H2O2-only-treated group): significantly increased
mRNA of Sod1 and Gpx7, and Hmox1 and Txrnd1 ([2]; after one hour): significantly increased
B-gal positive hDPC cells [3]: significantly reduced
accumulation of DNA damage (γ-H2A.X intensity) [4]: significantly reduced
cell viability (optical microscope) [5]: higher
